Laboratory results as given in paper PMC5724578 (Biochemistry, 2017).

Molecular target: VASP EVH1 domain (wild type) (human, UniProt P50552 2-115)
Assay: NMR titration

Kd: 32.2 ± 1.7 µM
B1: Zyxin proline rich region, residues 41-140 (domain or fragment, human, UniProt Q15942 41-140, looked up)
chain: PGDSEPPPAPGAQRAQMGRVGEIPPPPPEDFPLPPPPLAGDGDDAEGALGGAFPPPPPPIEESFPPAPLEEEIFPSPPPPPEEEGGPEAPIPPPPQPREK
